The results in this text go back to patent publication US20090081229A1 (published 2009).

Assay [1] has as its target T1, PRO87299 expressed on cells (human, UniProt Q7Z6A9 31-289).
T1 construct: also called PRO87299 transfected cells; 293 cells expressing PRO87299
In words: radioligand binding to transfected cells, Scatchard analysis. The protocol:
(§1) PRO87299 binds to HVEM in a cell based assay. In this experiment human 293 cells (ATCC CCL 1573) are grown to confluence in tissue culture plates in medium such as DMEM supplemented with fetal calf serum and optionally, nutrient components and/or antibiotics. About 10 μg pRK5-HVEM DNA is mixed with about 1 μg DNA encoding the VA RNA gene [Thimmappaya et al., Cell, 31:543 (1982)] and dissolved in 500 μl of 1 mM Tris-HCl, 0.1 mM EDTA, 0.227 M CaCl₂. To this mixture is added, dropwise, 500 μl of 50 mM HEPES (pH 7.35), 280 mM NaCl, 1.5 mM NaPO₄, and a precipitate is allowed to form for 10 minutes at 25° C. The precipitate is suspended and added to the 293 cells and allowed to settle for about four hours at 37° C. The culture medium is aspirated off and 2 ml of 20% glycerol in PBS is added for 30 seconds. The 293 cells are then washed with serum free medium, fresh medium is added and the cells are incubated for about 5 days. Alternatively, about 10 μg pRK5-HVEM DNA is mixed with LipofectAMINE™ (Gibco/BRL, Gaithersburg Md.) reagent and transfection performed by following the manufacturer's instructions. After the 293 cells were transfected with HVEM, they were incubated with 1125 radiolabled PRO87299(ECD)-Fc and binding allowed to occur. The radiolabled PRO87299 was then competed off with unlabled PRO87299(ECD)-Fc and the estimated number of total binding sites and the dissociation constant (Kd) were determined by Scatchard analysis. FIG. 17(A) is a Scatchard plot and FIG. 17(B) is a displacement plot showing PRO87299(ECD)-Fc binding to HVEM transiently transfected cells. […] Using this methodology, the affinity of HVEM/LIGHT/PRO87299 interactions were determined.

Assay [2] deals with T2, LIGHT expressed on transfected cells (Homo sapiens (Human), UniProt O43557 1-240).
T2 construct: also called LIGHT (expressed protein)
The assay is described as above. The protocol: as §1

The target of assay [3] is T3, PRO87299/LIGHT (both expressed on the same transfected cells) (human, UniProt Q7Z6A9 31-289; O43557 1-240).
T3 construct: Two proteins co-expressed on cells as the target of I-125-HVEM-Fc; not a defined complex
Kind of assay: radioligand binding to cells expressing both PRO87299 and LIGHT, Scatchard analysis.

The next assay addresses T4, hPD-1-Fc (human, UniProt Q15116 25-167).
T4 construct: Bought; not shown: Fc; not described
In words: SPR (Biacore), hPD-1-Fc amine coupled at approximately 8000 RU. The procedure:
(§2) In this experiment, PRO87299(ECD)-Fc and CD28 family members hCTLA4-Fc, hPD-1-Fc, hICOS-Fc or hCD28-Fc were amine coupled to a Biacore™ CM5 chip at approximately 8000 response units. Each was then assayed for its ability to bind HVEM. An HVEM-Fc protein was made by ligating the nucleic acids encoding amino acids 1-199 of HVEM to a Fc, resulting in a HVEM-Fc fusion protein. This HVEM-Fc was cloned into an a expression vector which would produce the fusion protein when stably transfected into CHO cells. […] The result was 2 μg/ml of HVEM-Fc injected at 5 μl/min bound selectively to PRO87299 and not to the other member of the CD28 family members tested. The activity of each CD28 family member was confirmed positive by testing the binding response to their known ligands (data not shown) (CD28 family members and ligands were purchased from R&D systems).

Assay [4] deals with T5, PRO87299(ECD)-Fc (human, UniProt Q7Z6A9 31-155).
T5 construct: Reduced apparent molecular weight 55 kDa; also called PRO87299-Fc; PRO87299(ECD)-Fc chimera; not shown: human Fc domain
T5 sequence: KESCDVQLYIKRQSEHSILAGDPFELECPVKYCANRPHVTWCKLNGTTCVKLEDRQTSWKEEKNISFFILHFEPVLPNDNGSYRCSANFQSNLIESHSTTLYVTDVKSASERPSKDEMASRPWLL
In words: SPR (Biacore), PRO87299(ECD)-Fc amine coupled at ~8000 RU. The procedure:
as §2
On the technique in general: In SPR one partner is held on a chip, and binding of the other changes the refractive index at the surface.

For a further assay, the target named is T6, hICOS-Fc (human, UniProt Q9Y6W8 21-141).
T6 construct: Bought; not shown: Fc; not described
T6 sequence (looked up): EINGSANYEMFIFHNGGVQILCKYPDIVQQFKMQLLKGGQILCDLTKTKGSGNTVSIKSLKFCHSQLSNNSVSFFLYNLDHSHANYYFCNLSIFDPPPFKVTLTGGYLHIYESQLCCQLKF
In words: SPR (Biacore), hICOS-Fc amine coupled at approximately 8000 RU. The procedure: as §2

The target in a further assay is T7, hCTLA4-Fc (human, UniProt P16410 37-162, limits assumed).
T7 construct: Bought; not shown: Fc; not described
T7 sequence (looked up): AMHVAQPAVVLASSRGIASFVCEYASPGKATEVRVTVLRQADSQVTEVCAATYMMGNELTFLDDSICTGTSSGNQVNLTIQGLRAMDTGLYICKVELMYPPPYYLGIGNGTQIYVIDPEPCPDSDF
In words: SPR (Biacore), hCTLA4-Fc amine coupled at approximately 8000 RU. The procedure:
as §2

In the next assay the target is T8, hCD28-Fc (human, UniProt P10747 19-152).
T8 construct: Bought; not shown: Fc; not described
T8 sequence (P10747 19-152 limits assumed): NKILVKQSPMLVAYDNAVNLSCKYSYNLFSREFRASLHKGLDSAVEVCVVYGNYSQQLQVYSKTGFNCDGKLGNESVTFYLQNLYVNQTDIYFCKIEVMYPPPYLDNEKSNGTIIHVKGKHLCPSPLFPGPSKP
Kind of assay: SPR (Biacore), hCD28-Fc amine coupled at approximately 8000 RU. The procedure:
as §2

For assay [5], the target named is T9, HVEM expressed on transfected 293 cells (Homo sapiens (Human), UniProt Q92956 39-283).
T9 construct: Transient transfection of human 293 cells with pRK5-HVEM; also called HVEM transfected cells; 293 cells expressing HVEM
T9 sequence: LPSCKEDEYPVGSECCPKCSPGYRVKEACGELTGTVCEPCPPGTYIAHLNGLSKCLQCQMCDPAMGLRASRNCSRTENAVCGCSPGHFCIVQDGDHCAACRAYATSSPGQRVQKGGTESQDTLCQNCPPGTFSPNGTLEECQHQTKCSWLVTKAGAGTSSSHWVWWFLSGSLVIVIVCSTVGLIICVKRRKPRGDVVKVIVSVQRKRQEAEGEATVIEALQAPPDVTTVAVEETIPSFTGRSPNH
Kind of assay: radioligand binding to transfected cells, Scatchard analysis. The protocol:
as §1

In assay [6] the target is T5, PRO87299(ECD)-Fc. Kind of assay: SPR (Biacore), PRO87299-Fc amine coupled at ~9800 RU. The protocol:
PRO87299 interaction to HVEM is not blocked by LIGHT. PRO87299-Fc was amine coupled to a Biacore™ CM5 sensor chip at ˜9800 response units. LIGHT (purchased from Alexis™, Cat. #552-018-C010) was incubated at the increasing concentrations with 4 nM HVEM for 1 hr. […] LIGHT activity was confirmed by binding to immobilized HVEM-Fc on a CM5 sensor chip (data not shown). […] All binding sensograms were run in random order and in duplicate. Response units were recorded as the difference between baseline and 15 seconds before the end of a 2 min injection at 5 μl/min. Concentrations are based on molecular weights of 25 kDa for LIGHT monomer and 55 kDa for monomer HVEM.

T4 sequence (Q15116 25-167 limits assumed): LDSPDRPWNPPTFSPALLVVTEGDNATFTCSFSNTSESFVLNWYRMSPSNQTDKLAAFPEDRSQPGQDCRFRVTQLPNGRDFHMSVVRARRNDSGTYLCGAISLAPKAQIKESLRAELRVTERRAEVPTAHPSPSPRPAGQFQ

B1: HVEM-Fc (Fc fusion)
chain: LPSCKEDEYPVGSECCPKCSPGYRVKEACGELTGTVCEPCPPGTYIAHLNGLSKCLQCQMCDPAMGLRASRNCSRTENAVCGCSPGHFCIVQDGDHCAACRAYATSSPGQRVQKGGTESQDTLCQNCPPGTFSPNGTLEECQHQTKCSWLVTKAGAGTSSS
notes: Produced in stably transfected CHO cells, Protein A purified; also called HVEM-Fc fusion protein; I-125-HVEM-Fc; not shown: Fc
As to B1, the Kd was determined as 5.5 nM in [1], 7 nM in [2] and 0.5 nM in assay [3]. The binding result with hPD-1-Fc is recorded as “no binding (tested: 2 µg/ml)”; with PRO87299(ECD)-Fc [4], “binds”; with hICOS-Fc, “no binding (tested: 2 µg/ml)”; in the assay with hCTLA4-Fc, “no binding (tested: 2 µg/ml)”; with hCD28-Fc, “no binding (tested: 2 µg/ml)”.

B2: LIGHT-FLAG (ligand)
chain: GEMVTRLPDGPAGSWEQLIQERRSHEVNPAAHLTGANSSLTGSGGPLLWETQLGLAFLRGLSYHDGALVVTKAGYYYIYSKVQLGGVGCPLGLASTITHGLYKRTPRYPEELELLVSQQSPCGRATSSSRVWWDSSFLGGVVHLEAGEEVVVRVLDERLVRLRDGTRSYFGAFMV
notes: Radio-iodinated; also called I-125-LIGHT-FLAG; not shown: FLAG tag
B2: binding in assay [5] was put at a Kd of 2.5 nM.

B3: LIGHT (soluble, purchased from Alexis, Cat. #552-018-C010) (ligand)
chain: GEMVTRLPDGPAGSWEQLIQERRSHEVNPAAHLTGANSSLTGSGGPLLWETQLGLAFLRGLSYHDGALVVTKAGYYYIYSKVQLGGVGCPLGLASTITHGLYKRTPRYPEELELLVSQQSPCGRATSSSRVWWDSSFLGGVVHLEAGEEVVVRVLDERLVRLRDGTRSYFGAFMV
notes: Bought soluble protein; Monomer molecular weight 25 kDa used for concentrations
Turning to B3, in the assay with PRO87299(ECD)-Fc [6], the binding result was “no binding”.

What is called Kd is the free concentration of one partner at which half of the binding sites on the other are occupied at equilibrium, for simple one-to-one binding. A high value points to weaker binding.
